Source: US20020058800A1

Target: murine 103 gene product, transmembrane form, on the cell surface (murine) (UniProt P14719)
Test: flow cytometry; digoxigenin-labelled 3E10 with anti-Dig-PE against CD4-FITC, on CD4+ T cells cultured with IL-4 + anti-IL-12 (TH2 conditions). This is the middle of three panels, between 5.2 % (after primary restimulation) and 41 % (after tertiary restimulation). [C) TH2, middle panel]

Sequence of UniProt P14719 (P14719 24-567): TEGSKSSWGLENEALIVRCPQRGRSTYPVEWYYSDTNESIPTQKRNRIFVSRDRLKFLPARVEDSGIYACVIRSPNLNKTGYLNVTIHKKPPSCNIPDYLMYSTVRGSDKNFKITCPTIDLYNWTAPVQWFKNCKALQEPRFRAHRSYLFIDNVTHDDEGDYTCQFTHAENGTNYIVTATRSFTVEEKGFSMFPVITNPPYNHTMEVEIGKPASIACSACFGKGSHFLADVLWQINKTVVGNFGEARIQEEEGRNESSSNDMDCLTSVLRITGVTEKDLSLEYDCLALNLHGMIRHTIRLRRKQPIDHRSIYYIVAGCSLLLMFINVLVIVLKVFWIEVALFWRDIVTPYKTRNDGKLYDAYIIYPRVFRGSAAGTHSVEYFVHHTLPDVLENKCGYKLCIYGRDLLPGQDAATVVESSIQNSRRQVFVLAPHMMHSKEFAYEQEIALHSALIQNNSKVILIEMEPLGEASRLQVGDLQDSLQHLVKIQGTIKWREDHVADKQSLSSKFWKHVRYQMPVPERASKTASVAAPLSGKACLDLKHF

A % of cells in the upper right quadrant (3E10+ CD4+) of 11.1% was found for 3E10 mAb (antibody) in this work.
